Test results as given in article PMC2500141 (The Journal of Cell Biology, 2008).

Biological target: Drp1-6His phosphorylated at Ser600 by CaMKIα (UniProt O00429-4 1-699, phosphoserine at 600 (phosphorylated in vitro by CaMKIα))
Assay: pull-down

- binding result: binds
B1: GST-hFis1 (hFis1-ΔC, without 30 amino acids at the C terminus) (domain or fragment, human, UniProt Q9Y3D6 1-122, looked up)
chain: MEAVLNELVSVEDLLKFEKKFQSEKAAGSVSKSTQFEYAWCLVRSKYNDDIRKGIVLLEELLPKGSKEEQRDYVFYLAVGNYRLKEYEKALKYVRGLLQTEPQNNQAKELERLIDKAMKKDG
